Test results published in the supplement of paper PMC10724198.
± gives the standard deviation of the averaged measurements.

tested on: Saccharomyces cerevisiae; assay: protein stability index of tFT-peptide fusion (C-terminal peptide) (PSI (0-1 scale)); higher = more stable (slower turnover); conditions: genetic background: wild type; temperature: 30 C
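Further: PSI is a weighted mean of sequencing reads over stability bins, variants kept only with over 10 reads, mCherry proximal and sfGFP distal, peptide attached via GGGS linker.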

Row | Sequence | protein stability index
1 | PYKASGLAGCAV | 0.697 ± 0.008
2 | PYLLDTPPPSTP | 0.769 ± 0.043
3 | PYLLSLLSPLPL | 0.7005 ± 0.007
4 | PYPPRPATPRPP | 0.682 ± 0.018
5 | QADHGSSPHSIG | 0.717 ± 0.051
6 | QCLSIDARNGVT | 0.668 ± 0.095
7 | QEDNAIAVGWSA | 0.673 ± 0.008
8 | QEEKLSKNSKKK | 0.691 ± 0.036
9 | QEHLSFVATARY | 0.73 ± 0.1
10 | QEKWSKVSKKKE | 0.749 ± 0.19
11 | QERKKKRENKKE | 0.63688 ± 5.9e-05
12 | QFTSPHLNPFRT | 0.6783 ± 0.0058
13 | QFWRSSSSRLAS | 0.687 ± 0.045
14 | QGAINSKRRPDQ | 0.603 ± 0.045
15 | QGLPLCVVQALQ | 0.605 ± 0.042
16 | QGSSLLPLYFPD | 0.622 ± 0.013
17 | QGVGSHIPCGTP | 0.64 ± 0.023
18 | QGVLKYPRPSPP | 0.7071 ± 0.0016
19 | QHHDPYPHQRSP | 0.686 ± 0.023
20 | QIEEDINLVTCN | 0.739 ± 0.049
21 | QKCNPGKRVDRT | 0.692 ± 0.0091
22 | QKENTKEKKKRE | 0.686 ± 0.015
23 | QKFKHQNKLQSE | 0.6803 ± 0.0061

Row | Sequence | protein stability index
24 | QKGSGITPSPAR | 0.757 ± 0.12
25 | QKHTTKKTKTRY | 0.728 ± 0.037
26 | QKKKKEKQKKKG | 0.692 ± 0.023
27 | QKKNKNKIRTPN | 0.688 ± 0.012
28 | QKKNNKTTKKTK | 0.686 ± 0.012
29 | QKQKKKINIEKR | 0.731 ± 0.017
30 | QKTKEKKKKKRE | 0.708 ± 0.064
31 | QLFTAKHSDPLD | 0.7444 ± 0.0023
32 | QLGALIAHSTTF | 0.665 ± 0.13
33 | QLGVVDVIIGAS | 0.679 ± 0.052
34 | QLMAYFDITYSS | 0.723 ± 0.045
35 | QLPSDENSPANR | 0.615 ± 0.019
36 | QLRYVGRSISRM | 0.659 ± 0.037
37 | QMRRRGARRAKP | 0.743 ± 0.027
38 | QNLRLRKNIDIK | 0.76 ± 0.014
39 | QNQTYQKQKSKE | 0.71 ± 0.068
40 | QNWREDNKGKDI | 0.697 ± 0.032
41 | QPDQSKPSTPEP | 0.674 ± 0.051
42 | QPLDCPPYHPHH | 0.687 ± 0.016
43 | QPPSPHTLRADI | 0.787 ± 0.0037
44 | QQATLYCTTVRK | 0.682 ± 0.014
45 | QRCAVRSSFYVL | 0.641 ± 0.059
46 | QRCWSRKGVNSL | 0.67 ± 0.025

Row | Sequence | protein stability index
47 | QRGLERVVVGGI | 0.667 ± 0.016
48 | QRKKKDRTMKKR | 0.631 ± 0.026
49 | QRKNQKKKHNRR | 0.7159 ± 0.0027
50 | QRQPPEACPKNS | 0.747 ± 0.01
51 | QRRRQEKRKKQD | 0.654 ± 0.077
52 | QRSGNEDWKDLL | 0.888 ± 0.024
53 | QSAAPISTPSLC | 0.694 ± 0.012
54 | QSCQSKGSEVGE | 0.696 ± 0.054
55 | QSGTRRRKRCSD | 0.693 ± 0.042
56 | QSILGLVERVIK | 0.643 ± 0.032
57 | QSPSHSYLCHLF | 0.583 ± 0.097
58 | QSRSEVFPCHAS | 0.848 ± 0.15
59 | QSSWGGRWVRGG | 0.669 ± 0.011
60 | QTAAGLKPMSNR | 0.777 ± 0.17
61 | QTIRNLEVPLTG | 0.751 ± 0.017
62 | QTKEGSDRHRSS | 0.748 ± 0.015
63 | QTPLPPSAISPP | 0.7124 ± 0.005
64 | QTPPPLPSPHPH | 0.635 ± 0.09
65 | QTPPPRLPPRPP | 0.669 ± 0.062
66 | QTQSNTRIERKK | 0.668 ± 0.057
67 | QTTKPRDPPLHP | 0.787 ± 0.13
68 | QVDLVCKKVVGV | 0.655 ± 0.029
69 | QVFFDTSDHRMG | 0.72 ± 0.029

Row | Sequence | protein stability index
70 | QVHNTEICVPLV | 0.679 ± 0.013
71 | QVISDEHLCRFV | 0.651 ± 0.083
72 | QVKKKKQNDAKN | 0.646 ± 0.074
73 | QVRCCQEYSSEE | 0.69 ± 0.026
74 | QVWMRDCARKFQ | 0.731 ± 0.012
75 | QYVYIPGLSNLC | 0.632 ± 0.019
76 | QYWIYTGLKSLS | 0.598 ± 0.039
77 | RAAQVFPHVLPR | 0.6726 ± 0.0022
78 | RACLVWKSLGWV | 0.605 ± 0.084
79 | RACRISSIRVGI | 0.651 ± 0.014
80 | RAFVSDLPHPKS | 0.704 ± 0.098
81 | RAKGILPESEQI | 0.72 ± 0.035
82 | RAKRADPSGPPR | 0.724 ± 0.051
83 | RALGDGRLGQDT | 0.682 ± 0.014
84 | RALITRAPSKER | 0.795 ± 0.084
85 | RALSPFPSILPS | 0.719 ± 0.068
86 | RAMGDRSIRLDV | 0.679 ± 0.02
87 | RAPPPPHPSSPP | 0.744 ± 0.079
88 | RAPVRPSEYTRP | 0.681 ± 0.028
89 | RARASLIPNAGT | 0.705 ± 0.037
90 | RARTKGRMRTCR | 0.749 ± 0.15
91 | RASQRGVRGGGG | 0.666 ± 0.02
92 | RAWELPRLRGRE | 0.6682 ± 0.0039

Row | Sequence | protein stability index
93 | RCAGWSVDVGEG | 0.623 ± 0.17
94 | RCCVPCWFMTLV | 0.555 ± 0.021
95 | RCFQPLRQRMGR | 0.734 ± 0.064
96 | RCGGIWWIVSSV | 0.669 ± 0.081
97 | RCHAFGEWLRGW | 0.733 ± 0.003
98 | RCLGFSACPATY | 0.809 ± 0.14
99 | RCLRGGMLGFGR | 0.627 ± 0.052
100 | RCPRRASSPTLS | 0.843 ± 0.17
101 | RCSPPVFDTGES | 0.652 ± 0.017
102 | RCTLSSFIYFCP | 0.601 ± 0.039
103 | RCTPPPPTPPAT | 0.6832 ± 0.0027
104 | RCVGVLYVAGLE | 0.6533 ± 0.0012
105 | RCVGWRRTPESS | 0.739 ± 0.064
106 | RDGLVPFCVVII | 0.615 ± 0.048
107 | RDKKMKHIKDKR | 0.79 ± 0.11
108 | RDLGPSAISMTV | 0.628 ± 0.043
109 | RDPPLLQPTTSS | 0.648 ± 0.018
110 | RDQMDNILQRFR | 0.656 ± 0.077
111 | RDSMVFEVRYSQ | 0.698 ± 0.1
112 | REEKRREEEGKK | 0.701 ± 0.028
113 | REGGDPPDGGTG | 0.734 ± 0.039
114 | REKEIIIIKKEK | 0.683 ± 0.037
115 | RETSGEVESDVT | 0.678 ± 0.014

Row | Sequence | protein stability index
116 | REVGSTILAVVH | 0.645 ± 0.031
117 | RFAPCSPPADPS | 0.68 ± 0.019
118 | RFCRPVCRFNLG | 0.647 ± 0.063
119 | RFLCPSSFIELL | 0.794 ± 0.12
120 | RFLESNGRPFHK | 0.673 ± 0.0088
121 | RFRDSGRWLSAE | 0.765 ± 0.063
122 | RFRTVFFPLPRC | 0.716 ± 0.062
123 | RFVCSRLGGSVP | 0.64 ± 0.0029
124 | RGARRHSPTARW | 0.717 ± 0.037
125 | RGAVEAGGWRIG | 0.682 ± 0.0087
126 | RGFGPTPRSSGG | 0.707 ± 0.046
127 | RGFPALLPAPAC | 0.753 ± 0.12
128 | RGGAGGRQGCGG | 0.746 ± 0.043
129 | RGGARGRQGCGG | 0.765 ± 0.034
130 | RGGGAGAVQYRS | 0.642 ± 0.014
131 | RGGGGGGIGFPR | 0.681 ± 0.066
132 | RGGGGGRVAREC | 0.668 ± 0.011
133 | RGGGQAKAPAGD | 0.6566 ± 0.0011
134 | RGGWGGYRGGVP | 0.757 ± 0.021
135 | RGGWWGYRGGVP | 0.718 ± 0.057
136 | RGIFLGVCALDY | 0.696 ± 0.0085
137 | RGKGGKKRRKRD | 0.648 ± 0.07
138 | RGKKKAKIYREH | 0.766 ± 0.13

Row | Sequence | protein stability index
139 | RGLDNSGVVAGG | 0.715 ± 0.025
140 | RGLGGWAECGRW | 0.76 ± 0.05
141 | RGLGLVGLGGGG | 0.727 ± 0.012
142 | RGLRIRFKKIDK | 0.704 ± 0.078
143 | RGNSPPPSSPPL | 0.687 ± 0.038
144 | RGPGRTPLGRQL | 0.68915 ± 0.00044
145 | RGRRFMRGEVGG | 0.6528 ± 0.0055
146 | RGRWGVYISSWV | 0.626 ± 0.048
147 | RGSPCPQRAALH | 0.7 ± 0.035
148 | RGSQRVVVSLGW | 0.726 ± 0.0073
149 | RGVGFMGEGVTW | 0.656 ± 0.069
150 | RGVGGAPVWPFV | 0.765 ± 0.0093
151 | RGVLVTVNWVSG | 0.499 ± 0.038
152 | RGVREVGSAELV | 0.731 ± 0.022
153 | RGVVRYVNGSRG | 0.568 ± 0.083
154 | RGYVSLSEGVAA | 0.676 ± 0.058
155 | RHAMNPNTSRVL | 0.601 ± 0.042
156 | RHGDRLEHPIPV | 0.611 ± 0.031
157 | RHLESERAPLPG | 0.688 ± 0.018
158 | RHPEVGAATDGC | 0.708 ± 0.068
159 | RHSAQRPRARHP | 0.79 ± 0.032
160 | RICRWGSRAVVG | 0.685 ± 0.015
